Assay results published in patent US20070099830A1 (MIT, published 2007).

Biological target: T1, glutamate dehydrogenase (endogenous, 293T cells) (human, UniProt P00367 54-558, ADP-ribosylated (32P-labelled) in the mitochondrial labelling experiments; site not stated)
T1 construct: Endogenous protein in 293T lysate or mitochondria; also called GDH
Test: anti-FLAG immunoprecipitation from 32P-NAD labelled mitochondria of 293T cells overexpressing Sirt4-FLAG, autoradiography
Description: FIG. 5. Glutamate dehydrogenase is ADP-ribosylated in vivo and interacts with Sirt4. FIG. 5A. Mitochondria (50 mg) from 293T cells were incubated with [³²P]-NAD at 37° C. for 30 min. Proteins were separated by SDS-PAGE, transferred to a nitrocellulose membrane, and radioactivity was measured by exposure to film. FIG. 5B. Mitochondrial proteins were ADP-ribosylated as described for FIG. 5A, and lysis was performed in NP-40 buffer containing 10 mM DTT and 0.5 mM EDTA. Clarified lysate was incubated with protein A resin that had been pre-incubated with antibodies against hSirt4, ANT or glutamate dehydrogenase (GDH). FIG. 5C. 293T cells were transiently transfected with 10 μg of pCMV (V) or phSirt4-FLAG (4). Cells were harvested and lysed in NP-40 buffer containing protease inhibitors and 1 mM DTT. […] An endogenous interaction between Sirt4 and glutamate dehydrogenase was determined in MIN6 cells. […] Proteins were separated by SDS-PAGE, transferred to nitrocellulose membrane, and the radioactivity was measured by exposure to x-ray film.
Mitochondria from 293T control or Sirt4-FLAG overexpressing cells were incubated with [³²P]-NAD, and the ADP-ribosylation state of glutamate dehydrogenase was measured by immunoprecipitation and subsequent autoradiography. […] Moreover, a small amount of labeled glutamate dehydrogenase could be detected in a complex with Sirt4 (FIG. 5E).

T1 sequence (P00367 54-558): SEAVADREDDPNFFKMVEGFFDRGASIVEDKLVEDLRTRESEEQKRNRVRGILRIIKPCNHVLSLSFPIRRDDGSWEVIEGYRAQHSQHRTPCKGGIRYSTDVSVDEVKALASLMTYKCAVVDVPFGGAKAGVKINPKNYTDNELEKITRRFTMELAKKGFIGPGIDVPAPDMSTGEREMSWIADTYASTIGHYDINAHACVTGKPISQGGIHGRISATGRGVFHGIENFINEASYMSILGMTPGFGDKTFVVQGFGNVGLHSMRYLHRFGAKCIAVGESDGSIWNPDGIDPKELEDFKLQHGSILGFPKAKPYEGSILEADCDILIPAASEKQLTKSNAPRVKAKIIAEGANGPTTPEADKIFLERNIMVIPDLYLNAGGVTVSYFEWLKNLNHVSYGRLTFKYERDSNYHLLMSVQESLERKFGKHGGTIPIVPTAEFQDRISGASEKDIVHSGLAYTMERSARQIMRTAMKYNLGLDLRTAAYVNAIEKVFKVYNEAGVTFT

binding result: binds
B1: human Sirt4 with a C-terminal FLAG (enzyme)
chain: IGLFVPASPPLDPEKVKELQRFITLSKRLLVMTGAGISTESGIPDYRSEKVGLYARTDRRPIQHGDFVRSAPIRQRYWARNFVGWPQFSSHQPNPAHWALSTWEKLGKLYWLVTQNVDALHTKAGSRRLTELHGCMDRVLCLDCGEQTPRGVLQERFQVLNPTWSAEAHGLAPDGDVFLSEEQVRSFQVPTCVQCGGHLKPDVVFFGDTVNPDKVDFVHKRVKEADSLLVVGSSLQVYSGYRFILTAWEKKLPIAILNIGPTRSDDLACLKLNSRCGELLPLIDPC
notes: Overexpressed in 293T cells from phSirt4FLAG; Used in cell lysate or immunoprecipitated and eluted with FLAG peptide; also called hSirt4-FLAG; Sirt4-FLAG; not shown: C-terminal FLAG tag from vector pCMV-FLAG-4A
